Results as given in a protein production outcome set (Wang et al. 2014).

Experiment: label from the status in PepcDB records

For “MRSRVVREGSVGLMLVAGVGALAGLIFWLRGVSLGQDRYDVIVEFNDTAGLTVGTPVIYRGVQVGQVIDITAQSNSVLVRIQIQPASLAIPRDSVISAQISSLLGSPNLTIEPKRNIPAEVLAKTQPRSPNCDRAVILCNGSVVEGAQSASFASILTSIATLVSEIEQAKLVNTLSQTSRDASEAARSIRQLSSSLQQQIPPLRETLNAAQGAASQVEAAIAENRQSVRTTLTNLESSSQELQDILNSLEPAIDKANSGKLVDNLNELSANLAVASRNIRDVSTALNSPENLLTLQQTLDSARITFQNAQKITTDLNRLTGDPAVIENIRRLINSLGRLLSSTGALQEQVTDLKSLPLLPVSESPAGEAVVRRPNQP”, the protein production was “failed”.

In the case of “MIEHIIDIIIVLLAKLGYAGTFFGMLFESACIPIPSEIVLPFGGYLSSSSAPQGHTLNLVLVIISATLGGTVGSILAYTIGAKGGRILVYKYASKLHLSKEKIEKSEAVFDKYGDKIIFLSRLLPIIRTFISLPAGIAKMDFTKFTIYTLVGSAIWSTLLVYAGFVMGKNWESIRSYFHIADYLVAGAIILFIVYRIIVYIKKKTKK”, the protein production is reported as “failed”.

With “MSSRMARLGLSTYRLAGTVASPVVGLYLTYRTAKGKEDRARRLERFGYPSANRPQGPLVWFHAASVGETNAVIPLIREIRRRDIHVILTTGTITSARLAAERLGQEAIHQYVPLDLKPSVSRFLDYWQPDCAIIAESEIWPATVLELGRRRIPQILVNARMSDRSFARWRRRQSIAEALFENLALVIAQSDVDAERFRDLGAVPVITSGNLKVDTDAPPYDSAVFARYKKQIGDRKTWAAISTFDGEENAAGIVHRVLKERDRQLTIIVPRHPERSDEIEAALVKQGLKVARRTRDDVLSADVDIFLGDTIGEMGLYLRLTEIAFVGRSLFAEGGQNPLEPAMLGCAILSGGNVQNFREAYQKLARSGSARMVRDTEMLAKGVHYLLTNDEARRNMIEAGVATVHEMRGALSATVKGLEPYINPLTVKARLLPKAAAQV” the protein production was “failed”.

With “MQSPPHDPASALAIRNHYRQSQSRAARLRLLVDTGQELIQLPPEAMRKCVLQRACAFVAMDHGLLLEWGADNGVQTTARHGSKERLSTLETTADPLAIGPQWLERPGTHLPCVLLLPLRGADEGSFGTLVLANSVAISAPDGEDIESLQLLATLLAAHLENNRLLEALVARDRT” the protein production was “not failed”.

In the case of “MKLTIPTWLTLLRIVMIPVLVVVFYLPYTWTNFASAGVFALAAITDWLDGWVARRYHQYSAFGAFLDPVADKLMVAVALFLIVQGHPTPWMAFWAAVIVGREIAVSALREWMAEIGQRAKVRVAAIGKIKTTAQMVALLCLLYSVTPGQMPTHEIWLGNLIFRAGYWTLAIAALLTLWSGFQYLQAAWPSLRADEKAAISNKPKKIESNS”, the protein production is reported as “failed”.

With “MKFVQERRLTVKTTFSKEYKIFIFGLLISRIGDSLYTFALPWIAYQLTGSAVIMGSLFAVNVLPIVLFGPLVGVLVDRYDRKKLLWMADIINIILVSLVPILHALHLLEVWHLYVITFILAVMSMLFDVTTVTVIPHIAGASLTKANSLYQMVNQLASLFGPIIAGLFISFIGGFQVLWINVLSFIATLIAVIILPSMKNLNKKNTDKKTLQNVLNDLFDGFKWLINDRLNIALSLQAMVGNFGASAVLGVLMYYLLSTLNLTSAQSGYNYTLIGIGGLLGSLIAVPLEKKFRRGILIPLLLFFGALGLTFALWSTYWLAPGIAFGIAMTCNITWNTIVTSIRQETVPSNLQGRVLGFSRVLTRLSMPLGALVGGIISAYNPVFIFALAAFTKIIEVFIALCSPIRKL” the protein production was “failed”.

In the case of “MCSSDSLQLHNVFVYGSFQDPDVINVMLDRTPEIVSATLPGFQRFRLKGRLYPCIVPSEKGEVHGKVLMGVTSDELENLDAVEGNEYERVTVGIVREDNSEKMAVKTYMWINKADPDMFGEWNFEEWKRLHKKKFIETFKKIMECKKKPQGQGNDDISHVLREDQ”, the protein production is reported as “not failed”.

For “MSLTKYHDLKNKVIVIAGGIKNLGALTAKTFALESVNLVLHYHQAKDSDTANKLKDELEDQGAKVALYQSDLSNEEEVAKLFDFAEKEFGKVDIAINTVGKVLKKPIVETSEAEFDAMDTINNKVAYFFIKQAAKHMNPNGHIITIATSLLAAYTGFYSTYAGNKAPVEHYTRAASKELMKQQISVNAIAPGPMDTSFFYGQETKESTAFHKSQAMGNQLTKIEDIAPIIKFLTTDGWWINGQTIFANGGYTTREGHHHHHH”, the protein production was “not failed”.

For “MRNEAFDILKDIPKWKLIFWLLLAITLTPITELIIYRLVTSVIESSLTLTELGKEFIRIFGYEKYKGIKESLWMMIVSYLFLFSIFSSYLYIFYRHEKKLYYETCIKKMIEEIRYIANGNFNHKVSIVNHNYLEELAIGVNEIVEQLKVSIDEERQAEQAKSELITNVSHDLRTPLTSIVGYVNLIHHDNYRDEVELRYYIQVIYDKVTRLNALMNDLFEYTRVQNKELSLYSVPIDIVELLGQLTVQFRIQVQEANIECRPSFPSQKLMVLADGDKLVRVFENLIINAIAYGSEGRYIDLTAYESNNMITIDITNYGQPIPSTDLPHIFERFYRVEKSRSTNTGGSGLGLAIAKSIVELHKGTIEVYSDDEKTTFTVKLLPYKC”, the protein production was “failed”.

For “MATRQPLDATACSLMVGLCAIWGLQQVALKATASDIAPVLQIALRSGGAALLVGLLMCWRGERLGLGDGHWRPGLLVGGLFALEFLLVGEGLRYTTASHMAIFLYTAPIFAALGLHWLMPAERLKPAQWLGIGVAFGGIVVAFSGPAAAGHGGGSHVLLGDFLGVLGGVAWGATTVVVRCSRLASSPTTRTLQYQLLGAFVWLGLAALLTDQTSIHFTPLVVASLGFQVLVVSFASFLIWFTLLRRYPASRLGVLSFMTPLFGIGFGVWLLHEPLEPNFIFGALLVLAGIVMVSGYEWLRQRFKRNRESPVAPRSS”, the protein production was “failed”.

For “MKIGVYGASGRIGKLLLEELKGGYKGLALSSVFVRQKCETDFSSFSHAPLVTNDLKAFVRACECVIDFSLPKGVDNLLEALLECPKILVSGTTGLEKETLEKMQQLALKAPLLHAHNMSIGIMMLNQLAFLTSLKLKDADIEIIETHHNLKKDIPSGTALSLYETCAKARGYDEKNALITHREGLRSKESIGIAALRGGDVAGKHTIGFYLEGEYIELSHTATNRSIFAKGALEVALWLKDKAAKKYEINEMFG”, the protein production was “failed”.

With “MKKWRFLGIDDSFDDRKCCVVGCVTCGGYVEGFLYTEIDIDGLDATDKLISMVRRSKFREQIKCIFLPGITLGGFNLVDIQRVYRETKIPVVVVMRRKPDMEEFDSAMRNLENYELRRKIVEVAGEIHRIGDIYIQTAGLTPSEAEKLVKASLIKGNMPEPVRISHLVASAIIHGESR” the protein production was “not failed”.

With “MKFFQRTVLEPAYQGAQLHPGKLSGIYQNEILCNSLFHHYKQRTLKLGRELESRLKHLYHLVRMALPGTVSANTTRRSPANSIHTEVQIDSRTDTHLPQVSDDEDLRWIRTGLPHQYHAYLAIDRLKSSHHLAGQSVLCIGGRAALYPNYHQLIEAAGGHFMVFRGGAQDNSECLLALLARVDSIICPVDCINHEDFFTVRRYCQRTGKNCVMLERSDLVTFGKAVETLARGDCHNSETLEHHHHHH” the protein production was “failed”.

In the case of “MEALDWLVIGVFFLALIGIIVWVVRQKQNDSADYFLGGRDATWLAIGASIFASNIGSEHLIGLAGAGASSGMAMAHWEIQGWMILILGWVFVPFYSRSMVYTMPEFLERRYNPQSRTILSVISLVSYVLTKVAVTVYAGGLVFQQVFGIKELWGIDFFWIAAIGLVVLTALYTIFGGMKSVLYTSVLQTPILLLGSLIILVLGFKELGGWDEMMRVCGAVTVNDYGDTMTNLIRSNDDANFPWLGALIGSAIIGFWYWCTDQFIVQRVLSGKNEKEARRGTIFGAYLKLLPVFLFLIPGMIAFALHQKYIGAGGEGFLPMLANGTANADAAFPTLVAKLLPAGVKGLVVCGILAALMSSLASLFNSSAMLFTIDFYKRFRPETPEKKLVGIGQIATVVIVILGILWIPIMRSVGDVLYTYLQDVQSVLAPGIAAAFLLGICWKRTSAQGGMWGLIAGMIIGLTRLGAKVYYSNAGEVADSTFKYLFYDMNWLFFCGWMFLFCIIVVIVVSLATEAPTAEKIQGLVFGTATKEQKAATRASWDHWDIIHTVIILAITGAFYWYFW”, the protein production is reported as “failed”.
